Tests used:
His-Smc3 = target: T1, His-Smc3 (human, UniProt Q9UQE7 1-1217); assay: pull-down; GST or GST-NudCL2 protein incubated with each of the purified His-tagged cohesin subunits from Sf9 cells; Western analysis; settings: both partners purified
T1 construct: Full-length human SMC3 cloned by RT-PCR into pFastBac-HT A (His-tag vector); pFastBac-HT A is recalled to add the His tag at the N-terminus; also called His-tagged Smc3; source: Sf9 insect cells (Bac-to-Bac baculovirus), purified with nickel-nitrilotriacetic acid beads
T1 sequence (Q9UQE7 whole entry): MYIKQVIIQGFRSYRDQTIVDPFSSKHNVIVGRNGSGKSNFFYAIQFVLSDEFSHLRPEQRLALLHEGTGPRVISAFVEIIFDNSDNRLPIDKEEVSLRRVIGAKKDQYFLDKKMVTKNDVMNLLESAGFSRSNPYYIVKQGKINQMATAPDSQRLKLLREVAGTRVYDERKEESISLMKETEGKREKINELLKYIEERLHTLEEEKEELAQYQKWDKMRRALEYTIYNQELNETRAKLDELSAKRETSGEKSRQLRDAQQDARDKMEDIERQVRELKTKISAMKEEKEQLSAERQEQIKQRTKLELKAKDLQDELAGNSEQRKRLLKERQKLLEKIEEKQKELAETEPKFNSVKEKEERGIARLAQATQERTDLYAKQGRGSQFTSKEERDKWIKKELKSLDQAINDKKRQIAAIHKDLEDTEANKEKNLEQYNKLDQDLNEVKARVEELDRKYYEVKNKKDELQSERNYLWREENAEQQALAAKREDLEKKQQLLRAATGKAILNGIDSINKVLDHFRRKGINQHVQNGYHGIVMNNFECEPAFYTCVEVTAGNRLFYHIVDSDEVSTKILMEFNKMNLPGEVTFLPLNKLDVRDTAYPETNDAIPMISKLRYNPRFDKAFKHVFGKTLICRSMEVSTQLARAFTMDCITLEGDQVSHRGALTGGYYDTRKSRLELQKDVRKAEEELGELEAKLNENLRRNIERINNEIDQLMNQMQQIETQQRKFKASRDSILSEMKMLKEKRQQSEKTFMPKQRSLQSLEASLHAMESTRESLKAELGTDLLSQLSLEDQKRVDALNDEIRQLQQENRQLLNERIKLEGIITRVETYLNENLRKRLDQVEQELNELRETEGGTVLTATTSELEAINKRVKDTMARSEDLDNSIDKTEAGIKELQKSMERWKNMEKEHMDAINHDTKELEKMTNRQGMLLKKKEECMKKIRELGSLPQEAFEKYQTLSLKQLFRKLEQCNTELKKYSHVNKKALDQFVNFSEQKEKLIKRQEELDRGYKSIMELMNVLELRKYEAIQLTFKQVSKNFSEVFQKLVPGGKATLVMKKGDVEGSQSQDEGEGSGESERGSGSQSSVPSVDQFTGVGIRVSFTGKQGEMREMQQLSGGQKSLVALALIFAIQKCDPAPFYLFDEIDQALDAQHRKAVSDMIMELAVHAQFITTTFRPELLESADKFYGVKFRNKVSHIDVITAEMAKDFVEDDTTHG

His-Smc1α = target: T2, His-Smc1α (human, UniProt Q14683 1-1233); assay: as above; settings: both partners purified
T2 construct: Full-length human SMC1A cloned by RT-PCR into pFastBac-HT A (His-tag vector); pFastBac-HT A is recalled to add the His tag at the N-terminus; also called His-tagged Smc1α; SMC1A; source: Sf9 insect cells (Bac-to-Bac baculovirus), purified with nickel-nitrilotriacetic acid beads
T2 sequence (looked up): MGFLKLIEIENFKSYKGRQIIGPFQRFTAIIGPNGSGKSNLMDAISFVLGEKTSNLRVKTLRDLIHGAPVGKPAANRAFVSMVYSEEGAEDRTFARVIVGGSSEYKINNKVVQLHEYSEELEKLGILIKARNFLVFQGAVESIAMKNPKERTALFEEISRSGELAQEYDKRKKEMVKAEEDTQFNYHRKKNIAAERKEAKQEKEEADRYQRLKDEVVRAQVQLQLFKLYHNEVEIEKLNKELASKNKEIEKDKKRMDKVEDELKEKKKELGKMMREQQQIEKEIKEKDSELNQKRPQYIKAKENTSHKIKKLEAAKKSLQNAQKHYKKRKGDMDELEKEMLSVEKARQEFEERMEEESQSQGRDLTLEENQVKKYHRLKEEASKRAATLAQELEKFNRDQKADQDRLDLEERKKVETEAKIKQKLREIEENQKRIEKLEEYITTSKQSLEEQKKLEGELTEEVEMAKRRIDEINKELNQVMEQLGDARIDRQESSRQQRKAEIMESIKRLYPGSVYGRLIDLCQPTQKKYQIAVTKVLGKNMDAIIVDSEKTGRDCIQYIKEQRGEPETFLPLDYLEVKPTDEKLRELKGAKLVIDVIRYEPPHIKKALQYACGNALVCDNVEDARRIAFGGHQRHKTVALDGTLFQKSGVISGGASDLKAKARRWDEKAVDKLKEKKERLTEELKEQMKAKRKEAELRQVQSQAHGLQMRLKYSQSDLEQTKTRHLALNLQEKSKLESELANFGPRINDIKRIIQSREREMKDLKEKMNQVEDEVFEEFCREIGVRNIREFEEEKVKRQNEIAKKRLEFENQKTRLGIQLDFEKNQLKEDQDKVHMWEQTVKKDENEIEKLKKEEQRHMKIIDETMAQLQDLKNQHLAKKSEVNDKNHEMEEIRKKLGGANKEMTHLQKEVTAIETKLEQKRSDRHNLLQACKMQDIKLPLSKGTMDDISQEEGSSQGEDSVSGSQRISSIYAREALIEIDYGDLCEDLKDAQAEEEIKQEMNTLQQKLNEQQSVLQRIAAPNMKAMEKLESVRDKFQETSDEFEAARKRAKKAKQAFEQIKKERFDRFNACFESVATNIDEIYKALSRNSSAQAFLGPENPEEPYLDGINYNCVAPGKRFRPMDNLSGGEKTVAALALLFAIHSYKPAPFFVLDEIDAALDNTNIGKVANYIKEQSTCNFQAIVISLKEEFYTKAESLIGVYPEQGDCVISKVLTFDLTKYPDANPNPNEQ

B1: GST-NudCL2 (natural protein, human, UniProt Q8WVJ2 1-157, looked up)
chain: MSAPFEERSGVVPCGTPWGQWYQTLEEVFIEVQVPPGTRAQDIQCGLQSRHVALSVGGREILKGKLFDSTIADEGTWTLEDRKMVRIVLTKTKRDAANCWTSLLESEYAADPWVQDQMQRKLTLERFQKENPGFDFSGAEISGNYTKGGPDFSNLEK
notes: NudCL2 (NudC-like protein 2), human; also called NudC-like protein 2; source: purified from bacteria
- binding result (His-Smc3): binds
- binding result (His-Smc1α): binds
